In patent publication EP2871189A1 (INSTITUT PASTEUR, dated 2015) one finds binding result and Kd data, which are given here for 1 molecule.

The target of test [1] is recombinant ectodomain of glycoprotein E2 of GB virus (GBV-B) fused to the double Strep-Tag (GB virus (GBV-B)). In words: Western blot.
In test [2] the target is T1, VHH-E9 containing the strep-tag sequence of SEQ ID NO: 13 at the C terminus.
T1 construct: also called Strep-tagged anti-GFAP VHH E9; anti-GFAP VHH E9
In words: ELISA assay after Friguet et al 1985 (method as in the sentence before).

B1: monoclonal antibody C23.21 (antibody, V domains shown)
VH: EVQLEQSGPELVKPGASVKMSCKASGYTFTNYYMKWVKQSHGKSLEWIGDLNPNNGDTFYNQKFKGKATLTVDKSSNTAYMQLNSLTSEDSAVYYCARTGRYEENAMDYWGQGTSVTVSS
VL: ELVMTQSPASLAVSLGQRATISCRASESVDSYGKSFMHWYQLKPGQPPKLLIYRASNLESGVPARFSGSGSRTDFTLTIDPVEADDAATYYCQQNNEDPWTFGGGTKLEIK
notes: also called C23-21 mAb; anti-strep tag C23-21 mAb
For the molecule B1, in test [1], the binding result was “binds”. Also, binding in test [2] was characterised by a dissociation constant (Kd) of 0.91 nM.
